Measured values published in patent publication US20120308566A1.

How the values were obtained:
[1] = target: huIL-17RA-FLAG-polyHis (human) (UniProt Q96F46); experiment: multiplexed binning, huIgG row/col K (IL-17RA on AMH14/AML14 bead)
[2] = target: huIL-17RA-FLAG-polyHis (human) (UniProt Q96F46); experiment: multiplexed binning, huIgG row/col L (IL-17RA on AMH19/AML19 bead)
[3] = target: huIL-17RA-FLAG-polyHis (human) (UniProt Q96F46); experiment: multiplexed binning, huIgG row/col I (IL-17RA on AMH22/AML22 bead)

normalized MFI [1]: -235 | normalized MFI [2]: -36 | normalized MFI [3]: -72
Substance: huIgG (antibody)
